What was measured:
[1] = molecular target: chimeric human MSLN-R3 / chicken MSLN-R1-2 protein on HEK293T cells (clone A5) (chicken; human); test: FACS, HEK293T-chickR1-2/hR3-A5 cells
[2] = molecular target: human MSLN full-length protein, recombinant, on CHO-K1 or HEK293T cells (human) (UniProt Q13421); test: competitive FACS on CHO-K1-human MSLN-2C8 cells vs Biotin-Tab142; competitor at 0.0128 nM
[3] = molecular target: human MSLN full-length protein, recombinant, on CHO-K1 or HEK293T cells (human) (UniProt Q13421); test: competitive FACS on CHO-K1-human MSLN-2C8 cells vs Biotin-Tab131; competitor at 0.064 nM
[4] = molecular target: human MSLN full-length protein, recombinant, on CHO-K1 or HEK293T cells (human) (UniProt Q13421); test: competitive FACS on CHO-K1-human MSLN-2C8 cells vs Biotin-Tab142; competitor at 0.0064 nM
[5] = molecular target: human MSLN full-length protein on transfected cells (CHO-K1-hMSLN clones 2C8, 2D11, 2C5; HEK293T-hMSLN clones B8, 2A4, 2A7) (human) (UniProt Q13421); test: FACS, CHO-K1-hMSLN-2C8 cells, antibody 4 nM
Chain of human MSLN full-length protein on transfected cells (CHO-K1-hMSLN clones 2C8, 2D11, 2C5; HEK293T-hMSLN clones B8, 2A4, 2A7) (human) (Q13421 other isoform, or with tags, fused parts or gaps limits assumed): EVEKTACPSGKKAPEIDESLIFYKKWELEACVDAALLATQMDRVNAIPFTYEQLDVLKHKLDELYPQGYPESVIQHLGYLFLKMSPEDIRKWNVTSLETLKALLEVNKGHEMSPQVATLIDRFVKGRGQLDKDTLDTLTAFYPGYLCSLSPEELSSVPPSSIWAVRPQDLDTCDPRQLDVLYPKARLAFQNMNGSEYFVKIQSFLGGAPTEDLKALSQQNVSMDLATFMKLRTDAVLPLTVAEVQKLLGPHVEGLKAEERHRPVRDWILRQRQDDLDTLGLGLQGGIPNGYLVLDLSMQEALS

[6] = molecular target: human MSLN full-length protein, recombinant, on CHO-K1 or HEK293T cells (human) (UniProt Q13421); test: competitive FACS on CHO-K1-human MSLN-2C8 cells vs Biotin-Tab131; competitor at 0.32 nM
[7] = molecular target: human MSLN full-length protein on transfected cells (CHO-K1-hMSLN clones 2C8, 2D11, 2C5; HEK293T-hMSLN clones B8, 2A4, 2A7) (human) (UniProt Q13421); test: FACS, CHO-K1-hMSLN-2C8 cells, antibody 20 nM
[8] = molecular target: human MSLN protein endogenously expressed on tumor cells (Hela, OVCAR3) (human) (UniProt Q13421); test: FACS, OVCAR3 cells, antibody 0.032 nM
Chain of human MSLN protein endogenously expressed on tumor cells (Hela, OVCAR3) (human) (Q13421 other isoform, or with tags, fused parts or gaps): as the sequence (Q13421 other isoform, or with tags, fused parts or gaps limits assumed) above, with P14R counted along it

[9] = molecular target: human MSLN full-length protein on transfected cells (CHO-K1-hMSLN clones 2C8, 2D11, 2C5; HEK293T-hMSLN clones B8, 2A4, 2A7) (human) (UniProt Q13421); test: FACS, CHO-K1-hMSLN-2C8 cells, antibody 100 nM
[10] = molecular target: human MSLN full-length protein, recombinant, on CHO-K1 or HEK293T cells (human) (UniProt Q13421); test: competitive FACS on CHO-K1-human MSLN-2C8 cells vs Biotin-Tab131; competitor at 200 nM
[11] = molecular target: chimeric human MSLN-R3 / chicken MSLN-R1-2 protein on HEK293T cells (clone A5) (chicken; human); test: FACS, HEK293T-hR3/chickR1-2-A5 cells, antibody 0.2 nM
[12] = molecular target: human MSLN full-length protein, recombinant, on CHO-K1 or HEK293T cells (human) (UniProt Q13421); test: FACS, HEK293T-hMSLN-B8 cells, antibody 20 nM
[13] = molecular target: chimeric human MSLN-R3 / chicken MSLN-R1-2 protein on HEK293T cells (clone A5) (chicken; human); test: FACS, HEK293T-hR3/chickR1-2-A5 cells, antibody 20 nM
[14] = molecular target: human MSLN protein endogenously expressed on tumor cells (Hela, OVCAR3) (human) (UniProt Q13421); test: FACS, OVCAR3 cells, antibody 0.16 nM
[15] = molecular target: human MSLN protein endogenously expressed on tumor cells (Hela, OVCAR3) (human) (UniProt Q13421); test: FACS, OVCAR3 cells, antibody 4 nM
[16] = molecular target: monkey MSLN full-length protein on HEK293T cells (monkey); test: FACS, HEK293T-monkey-MSLN cells, antibody 0.8 nM
[17] = molecular target: human MSLN full-length protein, recombinant, on CHO-K1 or HEK293T cells (human) (UniProt Q13421); test: competitive FACS on CHO-K1-human MSLN-2C8 cells vs Biotin-Tab142; competitor at 0.00256 nM
[18] = molecular target: human MSLN protein endogenously expressed on tumor cells (Hela, OVCAR3) (human) (UniProt Q13421); test: FACS, OVCAR3 cells, antibody 0.2 nM
[19] = molecular target: human MSLN full-length protein, recombinant, on CHO-K1 or HEK293T cells (human) (UniProt Q13421); test: competitive FACS on CHO-K1-human MSLN-2C8 cells vs Biotin-Tab131; competitor at 0.0128 nM
[20] = molecular target: human MSLN protein endogenously expressed on tumor cells (Hela, OVCAR3) (human) (UniProt Q13421); test: FACS, Hela cells
[21] = molecular target: human MSLN protein endogenously expressed on tumor cells (Hela, OVCAR3) (human) (UniProt Q13421); test: FACS, OVCAR3 cells, antibody 0.00128 nM
[22] = molecular target: human MSLN full-length protein, recombinant, on CHO-K1 or HEK293T cells (human) (UniProt Q13421); test: competitive FACS on CHO-K1-human MSLN-2C8 cells vs Biotin-Tab142; competitor at 1.6 nM
[23] = molecular target: human MSLN full-length protein, recombinant, on CHO-K1 or HEK293T cells (human) (UniProt Q13421); test: FACS, HEK293T-hMSLN-B8 cells, antibody 0.2 nM
[24] = molecular target: human MSLN-R3-rFc protein (human) (UniProt Q13421); test: ELISA, antibody 100 nM
[25] = molecular target: monkey MSLN full-length protein on HEK293T cells (monkey); test: FACS, HEK293T-monkey-MSLN cells, antibody 20 nM
[26] = molecular target: human MSLN full-length protein, recombinant, on CHO-K1 or HEK293T cells (human) (UniProt Q13421); test: competitive FACS on CHO-K1-human MSLN-2C8 cells vs Biotin-Tab142; competitor at 40 nM
[27] = molecular target: human MSLN full-length protein on transfected cells (CHO-K1-hMSLN clones 2C8, 2D11, 2C5; HEK293T-hMSLN clones B8, 2A4, 2A7) (human) (UniProt Q13421); test: FACS, CHO-K1-hMSLN-2C8 cells, antibody 0.16 nM

Chain of chimeric human MSLN-R3 / chicken MSLN-R1-2 protein on HEK293T cells (clone A5) (chicken; human) (Q13421 495-614, change not shown): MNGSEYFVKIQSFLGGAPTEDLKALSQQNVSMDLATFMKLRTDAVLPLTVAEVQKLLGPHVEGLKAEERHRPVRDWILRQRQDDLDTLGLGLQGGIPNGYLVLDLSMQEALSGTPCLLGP
Chain of human MSLN full-length protein, recombinant, on CHO-K1 or HEK293T cells (human) (Q13421 other isoform, or with tags, fused parts or gaps limits assumed): as the sequence (Q13421 other isoform, or with tags, fused parts or gaps limits assumed) above

How did the Max MFI [1] turn out when hIgG1 (antibody) was run?
Its Max MFI is 115.

And the MFI of Biotin-Tab142 [2]?
The MFI of Biotin-Tab142 was 24100.

And the MFI of Biotin-Tab131 [3]?
Its MFI of Biotin-Tab131 is 12500.

And the MFI of Biotin-Tab142 [4]?
The MFI of Biotin-Tab142 was 43700.

What about the FACS signal (MFI) [5] of the same substance?
Its FACS signal (MFI) is 110.

What about the MFI of Biotin-Tab131 [6] of the same substance?
The MFI of Biotin-Tab131 was 12700.

And the FACS signal (MFI) [7]?
Its FACS signal (MFI) is 156.

And the FACS signal (MFI) [8]?
The FACS signal (MFI) was 75.

And the FACS signal (MFI) [9]?
The FACS signal (MFI) was 72.

And the MFI of Biotin-Tab131 [10]?
Its MFI of Biotin-Tab131 is 12900.

What about the MFI [11] of the same substance?
The MFI was 73.

And the MFI [12]?
The MFI was 68.

What about the MFI [13] of the same substance?
Its MFI is 74.

What about the FACS signal (MFI) [14] of the same substance?
Its FACS signal (MFI) is 74.

And the FACS signal (MFI) [15]?
Its FACS signal (MFI) is 74.

And the FACS signal (MFI) [16]?
The FACS signal (MFI) was 87.

What about the MFI of Biotin-Tab142 [17] of the same substance?
Its MFI of Biotin-Tab142 is 24300.

And the MFI [18]?
Its MFI is 106.

And the MFI of Biotin-Tab131 [19]?
Its MFI of Biotin-Tab131 is 12600.

What about the Max MFI [20] of the same substance?
Its Max MFI is 75.

What about the FACS signal (MFI) [21] of the same substance?
Its FACS signal (MFI) is 75.

And the MFI of Biotin-Tab142 [22]?
Its MFI of Biotin-Tab142 is 22700.

And the MFI [23]?
Its MFI is 65.

What about the OD450 nm [24] of the same substance?
The OD450 nm was 0.21.

What about the FACS signal (MFI) [25] of the same substance?
Its FACS signal (MFI) is 84.

What about the MFI of Biotin-Tab142 [26] of the same substance?
Its MFI of Biotin-Tab142 is 23600.

And the FACS signal (MFI) [27]?
Its FACS signal (MFI) is 59.

Reference: patent publication US20240124563A1
